Measurements reported in US20100028370A1 (RAPTOR PHARMACEUTICAL, published 2010).

Target: mLRP/LRPTmMegT mini-receptor (fourth ligand binding and transmembrane domains of LRP1 with the C-terminal … (UniProt Q07954 3293-4444))
Test: cell-based or functional assay

Sequence of mLRP/LRPTmMegT mini-receptor (fourth ligand binding and transmembrane domains of LRP1 with the C-terminal … (Q07954 3293-4444): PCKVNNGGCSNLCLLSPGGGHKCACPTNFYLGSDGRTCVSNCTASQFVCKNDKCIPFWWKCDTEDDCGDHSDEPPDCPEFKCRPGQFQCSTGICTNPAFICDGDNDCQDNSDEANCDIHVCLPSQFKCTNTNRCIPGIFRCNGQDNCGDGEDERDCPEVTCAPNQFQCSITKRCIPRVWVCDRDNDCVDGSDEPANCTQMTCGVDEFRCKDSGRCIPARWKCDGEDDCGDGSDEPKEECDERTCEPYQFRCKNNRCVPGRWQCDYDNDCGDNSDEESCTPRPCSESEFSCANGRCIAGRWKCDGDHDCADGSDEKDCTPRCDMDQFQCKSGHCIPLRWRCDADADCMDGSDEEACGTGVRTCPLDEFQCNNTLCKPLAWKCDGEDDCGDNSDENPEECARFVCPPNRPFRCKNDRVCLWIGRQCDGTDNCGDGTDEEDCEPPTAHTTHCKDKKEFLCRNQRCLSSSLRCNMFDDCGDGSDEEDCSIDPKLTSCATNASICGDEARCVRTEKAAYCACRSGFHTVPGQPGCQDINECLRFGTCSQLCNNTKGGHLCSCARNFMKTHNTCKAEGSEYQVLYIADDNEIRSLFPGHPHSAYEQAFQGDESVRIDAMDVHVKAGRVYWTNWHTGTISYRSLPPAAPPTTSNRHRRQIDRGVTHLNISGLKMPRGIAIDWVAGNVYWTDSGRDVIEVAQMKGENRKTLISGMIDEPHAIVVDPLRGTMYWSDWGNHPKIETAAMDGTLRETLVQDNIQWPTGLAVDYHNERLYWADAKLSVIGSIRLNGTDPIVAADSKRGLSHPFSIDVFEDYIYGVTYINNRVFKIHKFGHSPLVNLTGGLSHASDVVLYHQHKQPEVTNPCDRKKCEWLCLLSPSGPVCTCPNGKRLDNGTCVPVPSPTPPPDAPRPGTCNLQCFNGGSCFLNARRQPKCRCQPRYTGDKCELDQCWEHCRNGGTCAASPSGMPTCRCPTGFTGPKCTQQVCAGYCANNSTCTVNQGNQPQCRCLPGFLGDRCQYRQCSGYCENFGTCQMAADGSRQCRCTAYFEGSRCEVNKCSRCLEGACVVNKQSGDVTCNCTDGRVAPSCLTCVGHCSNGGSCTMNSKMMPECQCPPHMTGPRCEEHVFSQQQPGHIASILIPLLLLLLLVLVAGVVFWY

B1: receptor-associated protein (RAP) (ligand)
chain: YSREKNQPKPSPKRESGEEFRMEKLNQLWEKAQRLHLPPVRLAELHADLKIQERDELAWKKLKLDGLDEDGEKEARLIRNLNVILAKYGLDGKKDARQVTSNSLSGTQEDGLDDPRLEKLWHKAKTSGKFSGEELDKLWREFLHHKEKVHEYNVLLETLSRTEEIHENVISPSDLSDIKGSVLHSRHTELKEKLRSINQGLDRLRRVSHQGYSTEAEFEEPRVIDLWDLAQSANLTDKELEAFREELKHFEAKIEKHNHYQKQLEIAHEKLRHAESVGDGERVSRSREKHALLEGRTKELGYTVKKHLQDLSGRISRARHNEL
  ratio of the apical-to-basolateral to the basolateral-to-apical permeability coefficient of 125I-RAP in MEGt-transfected MDCK cells: 460 fold
